Test results from patent US20230416345A1, “NEW TYPE II COLLAGEN BINDING PROTEINS” (Navigo Proteins GmbH, priority 2020, published 2023).

Key:
Type in all cases: binding
human collagen type III = target: T1, human collagen type III (Homo sapiens, UniProt P02461); experiment: ELISA specificity vs human collagen type III
T1 construct: purchased Abcam ab7535
T1 sequence (P02461 154-1221 limits assumed): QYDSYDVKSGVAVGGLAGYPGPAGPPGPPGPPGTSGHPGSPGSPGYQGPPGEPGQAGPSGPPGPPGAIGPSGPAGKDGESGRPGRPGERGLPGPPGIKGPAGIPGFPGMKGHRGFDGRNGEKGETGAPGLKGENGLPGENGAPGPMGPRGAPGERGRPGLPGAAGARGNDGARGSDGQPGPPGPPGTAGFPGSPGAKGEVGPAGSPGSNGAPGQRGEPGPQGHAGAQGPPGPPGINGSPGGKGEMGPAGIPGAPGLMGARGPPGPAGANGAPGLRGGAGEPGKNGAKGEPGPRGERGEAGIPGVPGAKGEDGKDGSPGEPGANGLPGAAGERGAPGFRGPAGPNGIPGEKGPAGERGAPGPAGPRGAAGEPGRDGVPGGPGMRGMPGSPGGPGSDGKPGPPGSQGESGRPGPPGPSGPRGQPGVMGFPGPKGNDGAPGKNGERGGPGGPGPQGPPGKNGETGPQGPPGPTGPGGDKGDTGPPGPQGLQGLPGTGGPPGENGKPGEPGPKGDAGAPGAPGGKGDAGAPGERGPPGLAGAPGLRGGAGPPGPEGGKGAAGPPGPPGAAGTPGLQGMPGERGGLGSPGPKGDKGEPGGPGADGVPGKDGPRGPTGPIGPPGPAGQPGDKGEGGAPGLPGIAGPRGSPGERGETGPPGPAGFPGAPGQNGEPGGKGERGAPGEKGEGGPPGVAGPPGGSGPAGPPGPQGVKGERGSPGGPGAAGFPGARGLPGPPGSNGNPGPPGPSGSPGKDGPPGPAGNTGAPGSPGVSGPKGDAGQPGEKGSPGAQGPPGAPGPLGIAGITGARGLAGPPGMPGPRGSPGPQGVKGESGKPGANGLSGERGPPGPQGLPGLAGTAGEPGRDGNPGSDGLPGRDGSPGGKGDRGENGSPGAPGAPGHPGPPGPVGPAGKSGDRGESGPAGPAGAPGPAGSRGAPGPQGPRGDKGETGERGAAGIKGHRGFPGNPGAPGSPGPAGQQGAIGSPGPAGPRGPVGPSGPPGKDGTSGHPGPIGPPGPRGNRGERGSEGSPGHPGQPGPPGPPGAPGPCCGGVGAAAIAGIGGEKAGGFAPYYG
Description: (§1) High binding plates (Greiner, 781061) were immobilized with 2.5 μg/ml recombinant human collagen type II (h Col II, Chondrex, CHX-20051), rabbit collagen type II (rbCol II, prepared from rabbit eyes), porcine collagen type II (p Col II, prepared from porcine eyes), human collagen type I, (h Col I, Sigma, C5483-1MG), human collagen type V (h Col V, Abcam, ab7537), human collagen type III (h Col Ill, Abcam, ab7535) and 67B89 (domain of fibronectin, produced in E. coli) respectively over night at 4° C. ELISA-plates were washed 3 times with PBST (PBS+ 0.1% Tween) and blocked with 3% BSA/0.5% Tween/PBS 2 h at RT. After washing with PBST, dilution series of 1.1 μM to 7×10^−4 nM of dimers (CID 211999, CID 212000), dilution series of 100 nM to 7×10^−6 nM of tetramers (CID 212001 and CID 212704) and dilution series of 10 μM to 2 nM of dimer (CID 212705) were incubated on ELISA-plates 1 h at rt. Plates were washed with PBST and incubated with biotinylated anti-StrepTag-ab (Antikörper-online, ABIN1573895) with a dilution of 1:10.000 for 1 h at rt. The binding was visualized with a-rabbit-IgG-HRP (Sigma, A9169) with a dilution of 1:10.000 and as substrate TMB Plus von KEM EN TEC Diagnostic, Kat-Nr. 4395.

[1] = target: T2, human collagen type V (h Col V) (Homo sapiens, UniProt P05997+P20908); experiment: ELISA specificity vs human collagen type V
T2 construct: purchased Abcam ab7537
Description: as §1

[2] = target: T3, human collagen type I (h Col I) (Homo sapiens, UniProt P02452+P08123); experiment: ELISA specificity vs human collagen type I
T3 construct: purchased Sigma C5483-1MG
Description: as §1

[3] = target: T4, 67B89 (domain of fibronectin) (Homo sapiens, UniProt P02751); experiment: ELISA specificity vs 67B89
T4 construct: unrelated fibronectin domain EDB (67B89) could be observed; made in house; host or cells: E. coli
Description: as §1

T2 sequence (P20908 38-1605 limits assumed): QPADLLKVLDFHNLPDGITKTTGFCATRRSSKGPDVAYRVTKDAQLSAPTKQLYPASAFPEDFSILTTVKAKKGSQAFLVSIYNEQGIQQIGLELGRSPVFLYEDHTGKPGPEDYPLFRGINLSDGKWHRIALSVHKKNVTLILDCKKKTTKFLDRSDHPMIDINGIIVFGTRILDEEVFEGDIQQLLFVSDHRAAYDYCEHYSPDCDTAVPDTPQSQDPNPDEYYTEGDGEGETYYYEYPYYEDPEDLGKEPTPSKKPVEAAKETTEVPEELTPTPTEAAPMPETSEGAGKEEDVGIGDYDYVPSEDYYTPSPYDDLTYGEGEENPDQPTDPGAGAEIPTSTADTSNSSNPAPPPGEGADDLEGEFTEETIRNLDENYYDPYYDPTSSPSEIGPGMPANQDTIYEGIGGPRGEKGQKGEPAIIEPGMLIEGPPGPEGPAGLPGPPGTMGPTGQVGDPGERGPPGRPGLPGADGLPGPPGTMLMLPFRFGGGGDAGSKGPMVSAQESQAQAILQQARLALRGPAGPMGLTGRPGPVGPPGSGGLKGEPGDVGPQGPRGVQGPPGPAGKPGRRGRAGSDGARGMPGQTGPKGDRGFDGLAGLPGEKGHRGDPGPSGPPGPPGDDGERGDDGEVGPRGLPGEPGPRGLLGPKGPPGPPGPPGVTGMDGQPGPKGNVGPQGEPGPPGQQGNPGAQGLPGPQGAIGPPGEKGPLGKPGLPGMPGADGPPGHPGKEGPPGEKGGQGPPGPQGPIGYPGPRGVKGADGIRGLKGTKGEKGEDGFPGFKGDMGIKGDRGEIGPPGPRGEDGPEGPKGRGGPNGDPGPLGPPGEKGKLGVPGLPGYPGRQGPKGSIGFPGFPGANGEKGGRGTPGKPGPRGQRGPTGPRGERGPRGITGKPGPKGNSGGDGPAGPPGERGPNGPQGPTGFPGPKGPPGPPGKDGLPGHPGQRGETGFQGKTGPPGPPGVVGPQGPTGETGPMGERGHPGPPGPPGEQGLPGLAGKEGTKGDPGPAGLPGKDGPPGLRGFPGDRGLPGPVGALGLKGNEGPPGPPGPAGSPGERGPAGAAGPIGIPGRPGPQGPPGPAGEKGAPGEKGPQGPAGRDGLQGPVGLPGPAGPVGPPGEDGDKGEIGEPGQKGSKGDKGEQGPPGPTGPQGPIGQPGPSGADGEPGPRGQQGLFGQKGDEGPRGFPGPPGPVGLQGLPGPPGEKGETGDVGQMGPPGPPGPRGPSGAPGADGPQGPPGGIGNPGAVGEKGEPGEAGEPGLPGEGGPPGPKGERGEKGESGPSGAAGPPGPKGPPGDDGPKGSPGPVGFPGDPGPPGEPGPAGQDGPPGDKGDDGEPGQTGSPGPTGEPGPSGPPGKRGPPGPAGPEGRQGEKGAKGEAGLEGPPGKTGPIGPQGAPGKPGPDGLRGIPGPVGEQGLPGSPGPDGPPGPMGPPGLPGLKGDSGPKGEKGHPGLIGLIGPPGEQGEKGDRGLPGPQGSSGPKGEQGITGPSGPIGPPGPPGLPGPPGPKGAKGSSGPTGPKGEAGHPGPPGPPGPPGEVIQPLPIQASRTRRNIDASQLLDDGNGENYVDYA
T2 sequence (P05997 27-1229 limits assumed): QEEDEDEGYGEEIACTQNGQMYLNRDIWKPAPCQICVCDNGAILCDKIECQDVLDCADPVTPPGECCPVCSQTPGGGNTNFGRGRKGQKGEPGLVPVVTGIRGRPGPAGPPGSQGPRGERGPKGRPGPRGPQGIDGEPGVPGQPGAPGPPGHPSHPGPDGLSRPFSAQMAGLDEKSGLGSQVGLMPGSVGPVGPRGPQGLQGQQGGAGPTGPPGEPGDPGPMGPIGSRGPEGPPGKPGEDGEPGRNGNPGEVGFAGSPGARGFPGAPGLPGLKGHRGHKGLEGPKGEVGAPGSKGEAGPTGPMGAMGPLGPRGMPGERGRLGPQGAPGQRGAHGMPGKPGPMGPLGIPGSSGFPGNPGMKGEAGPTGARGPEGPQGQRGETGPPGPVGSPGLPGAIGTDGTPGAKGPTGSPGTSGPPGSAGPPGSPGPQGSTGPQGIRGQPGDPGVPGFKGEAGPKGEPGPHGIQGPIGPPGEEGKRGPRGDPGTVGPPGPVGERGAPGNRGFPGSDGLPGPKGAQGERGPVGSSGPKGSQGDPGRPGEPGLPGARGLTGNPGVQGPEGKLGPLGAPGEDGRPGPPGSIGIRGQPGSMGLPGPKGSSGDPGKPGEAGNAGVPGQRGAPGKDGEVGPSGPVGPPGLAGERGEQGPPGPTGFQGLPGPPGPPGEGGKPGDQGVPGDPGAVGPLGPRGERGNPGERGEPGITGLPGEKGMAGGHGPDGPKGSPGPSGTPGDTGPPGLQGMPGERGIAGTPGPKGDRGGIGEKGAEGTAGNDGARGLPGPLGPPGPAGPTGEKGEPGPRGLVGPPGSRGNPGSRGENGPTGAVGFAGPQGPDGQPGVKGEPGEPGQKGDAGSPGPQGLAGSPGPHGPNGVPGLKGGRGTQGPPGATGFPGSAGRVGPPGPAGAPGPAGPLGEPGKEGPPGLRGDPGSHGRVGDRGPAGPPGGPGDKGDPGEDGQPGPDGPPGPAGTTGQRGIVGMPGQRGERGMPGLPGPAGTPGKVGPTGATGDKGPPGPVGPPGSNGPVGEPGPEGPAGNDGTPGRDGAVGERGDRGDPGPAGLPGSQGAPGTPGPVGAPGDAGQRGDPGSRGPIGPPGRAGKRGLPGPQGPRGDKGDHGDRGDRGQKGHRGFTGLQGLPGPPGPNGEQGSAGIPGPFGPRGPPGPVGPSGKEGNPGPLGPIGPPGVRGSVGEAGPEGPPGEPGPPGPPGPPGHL
T3 sequence (P02452 162-1218 limits assumed): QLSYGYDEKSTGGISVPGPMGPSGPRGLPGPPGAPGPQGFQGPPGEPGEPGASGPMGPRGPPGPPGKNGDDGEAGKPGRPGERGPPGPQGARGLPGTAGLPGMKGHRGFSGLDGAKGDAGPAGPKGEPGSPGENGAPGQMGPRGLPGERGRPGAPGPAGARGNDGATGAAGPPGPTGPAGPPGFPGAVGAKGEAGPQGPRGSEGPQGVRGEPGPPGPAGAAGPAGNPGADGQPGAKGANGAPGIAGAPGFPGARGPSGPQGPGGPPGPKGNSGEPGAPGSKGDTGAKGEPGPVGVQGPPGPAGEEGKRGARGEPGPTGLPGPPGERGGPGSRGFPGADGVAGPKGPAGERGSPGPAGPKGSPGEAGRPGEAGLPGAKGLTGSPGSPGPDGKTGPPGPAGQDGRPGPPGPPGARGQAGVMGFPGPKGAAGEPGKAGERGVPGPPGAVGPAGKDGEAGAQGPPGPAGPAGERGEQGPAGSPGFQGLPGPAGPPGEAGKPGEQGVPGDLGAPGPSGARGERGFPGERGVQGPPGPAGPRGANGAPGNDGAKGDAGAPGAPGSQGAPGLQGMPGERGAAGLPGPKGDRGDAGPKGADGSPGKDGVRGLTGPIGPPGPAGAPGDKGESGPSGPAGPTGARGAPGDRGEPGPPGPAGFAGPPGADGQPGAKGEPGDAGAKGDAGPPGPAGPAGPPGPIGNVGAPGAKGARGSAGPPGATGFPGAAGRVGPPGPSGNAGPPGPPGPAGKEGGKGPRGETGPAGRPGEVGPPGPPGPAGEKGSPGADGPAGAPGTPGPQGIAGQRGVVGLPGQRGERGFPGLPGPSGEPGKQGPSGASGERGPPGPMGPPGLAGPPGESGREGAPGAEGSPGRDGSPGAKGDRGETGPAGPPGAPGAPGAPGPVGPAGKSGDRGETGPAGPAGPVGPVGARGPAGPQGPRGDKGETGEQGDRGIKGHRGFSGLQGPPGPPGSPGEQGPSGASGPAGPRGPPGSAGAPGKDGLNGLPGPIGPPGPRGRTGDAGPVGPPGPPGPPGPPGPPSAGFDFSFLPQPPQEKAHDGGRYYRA
T3 sequence (P08123 80-1119 limits assumed): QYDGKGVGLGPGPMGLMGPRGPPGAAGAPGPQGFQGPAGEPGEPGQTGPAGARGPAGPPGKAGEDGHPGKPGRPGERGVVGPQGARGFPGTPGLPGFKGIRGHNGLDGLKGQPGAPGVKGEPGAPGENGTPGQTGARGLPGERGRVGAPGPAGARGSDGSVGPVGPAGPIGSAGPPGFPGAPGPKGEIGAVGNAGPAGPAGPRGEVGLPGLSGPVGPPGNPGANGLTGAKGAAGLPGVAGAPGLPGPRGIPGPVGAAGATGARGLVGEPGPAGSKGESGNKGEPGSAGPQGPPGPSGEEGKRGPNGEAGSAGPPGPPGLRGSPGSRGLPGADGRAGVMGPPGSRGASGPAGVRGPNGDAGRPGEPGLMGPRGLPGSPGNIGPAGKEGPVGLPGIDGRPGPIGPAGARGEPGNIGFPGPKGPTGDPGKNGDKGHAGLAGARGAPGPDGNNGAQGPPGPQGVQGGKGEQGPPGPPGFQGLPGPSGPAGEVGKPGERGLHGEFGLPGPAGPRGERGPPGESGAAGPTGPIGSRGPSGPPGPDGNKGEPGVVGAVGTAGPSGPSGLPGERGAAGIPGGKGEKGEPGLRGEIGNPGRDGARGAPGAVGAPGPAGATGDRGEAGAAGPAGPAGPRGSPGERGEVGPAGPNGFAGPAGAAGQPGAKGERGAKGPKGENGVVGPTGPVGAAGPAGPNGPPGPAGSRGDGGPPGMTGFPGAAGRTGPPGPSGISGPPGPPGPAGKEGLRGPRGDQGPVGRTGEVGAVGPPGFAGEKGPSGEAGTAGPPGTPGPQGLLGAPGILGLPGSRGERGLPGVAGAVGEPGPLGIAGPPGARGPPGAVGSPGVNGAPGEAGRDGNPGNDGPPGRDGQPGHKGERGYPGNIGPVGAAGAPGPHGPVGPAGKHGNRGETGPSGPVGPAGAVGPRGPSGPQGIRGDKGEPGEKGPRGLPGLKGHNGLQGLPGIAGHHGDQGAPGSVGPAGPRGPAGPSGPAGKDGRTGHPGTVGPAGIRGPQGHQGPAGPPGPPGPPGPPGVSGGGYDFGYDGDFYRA

binding to type III collagen (ELISA) (human collagen type III): No unspecific binding | binding to type V collagen (ELISA) [1]: No unspecific binding | binding to type I collagen (ELISA) [2]: No unspecific binding | binding to domain of fibronectin (67B89) (ELISA) [3]: No unspecific binding
B1: CID 212000: dimer of SEQ ID NO: 2 (dimer with linker between the monomers) (protein)
chain: IAAKFDEAQSAADSEILHLPNLTEQQRHYFRRWLSDDPSVSTHILTQAQHLNDDQAPKGGGGSGGGGSGGGGSGGGGSIAAKFDEAQSAADSEILHLPNLTEQQRHYFRRWLSDDPSVSTHILTQAQHLNDDQAPKSAWSHPQFEK
modifications: Col2 binding protein (dimer of 211261) (CID212000)
